# According to the DeepSol protein solubility set:
# Assay: soluble on expression in E. coli; label from the status in PepcDB or PDB records
row,Sequence,soluble on expression in E. coli
1,MSLTNLDFHIVKRIRQRIAQGGDNAALKHKQNGQWQAINWHQFGEQLDELSMALLAQGIGVQDKIAIFSNNMPRWTIADFAALQIRAVTVPIYPTNTPEQAAYILQNADVKVVFVGEQAQFDAALSQFEQCPELRLIVAMNANIDLKQASCAMHWDEFVAQSHHQDRAPLDALIEQANYDDLFTLIYTSGTTGTPKGVMLDYRNIGAQLEGHDQRLNLTQEDVSLCFLPLSHVFERAWTAYVLYKGATNCYLQDVAHVREALAEVRPTVMCAVPRFYEKIFSAIHEKVVKAPLVRKVLFTWAVNMGAKMAVCRQQQRQPSWMLKQSHQFADKLVLSKLRALLGGRINFMPCGGAKLDETIGRFFHAIGINVKLGYGMTETTATVSCWDDHCFNPDSIGLSMPGAQVKIGENNEILVRGPMVMRGYYKLDKETTESFDEQGFLKTGDAGHIDENGNLFITDRIKELMKTSGGKYIAPQVIEGAIGKDHFIEQIAVIADTRKFVSALIVPCFDSLEEYAKELNIKYHDRLELIKHSQVLEMFEKRVNELQKELAKFEQVKKFRLLPKAFSMDSGELTPTQKLRREGHHHHHH,soluble
2,MGSDKIHHHHHHMKTQVLYGKSEIEINVPDDSTIIEPQNIDAIQDYESTIKNVLRNPTNSKPLKEMVNSNDIVSIVISDITRPTPNHILVPLLIEELNHVPRENFVIINGTGTHRDQTRDELIQMLGEDIVNSVKIVHNHCSEKESLAKVGHSQYGCDVYLNKAYVESDFKIVTGFIEPHFFAGFSGGPKGIMPGIAGLETIQTFHNAKMIGDPRSTWGNLEDNPVQDMAREVNRMCKPDFLLNVALNKSKEITAAFAGEIFDTHKEGCAYVKDHAMFKCDQRFDIVIASNSGYPLDQNLYQTVKGMSAASKVVKKDGHIIMVSECADGFPDHGKFAEIFKMADTPQGILELIHNPNFKEVDQWQVQKQASIQTFANVHVYSELTDQQLKDSMLIPTSNIEHTIQELEHRYGRKLTIGVMPQGPLTIPYVEDKE,not soluble
3,MKTLHSLSEQLGGLLANQQQILASAESCTGGGVAYWVTEVAGSSAWFDRSFVTYSNEAKQEMLGVRQATLQQFGAVSEQTVEEMALGALLHSKATLAAAISGIAGPGGGSAEKPVGTVCFGFASVQGWLKVETCHFTGDREQVRQQAIAHVLQSLIEHLAADQVQNVN,not soluble
4,MSLAHPPRLNDDKPVIWTVSVTRLFELFRDISLEFDHLANITPIQLGFEKAVTYIRKKLANERCDAIIAAGSNGAYLKSRLSVPVILIKPSGYDVLQELAKAGKLTSSIGVVTYQETIPALVAFQKTFNLRLDQRSYITEEDARGQINELKANGTEAVVGAGLITDLAEEAGMTGIFIYSAATVRQAFSDALDMTRMSLRHNTHDATRNALRTRYVLEGHHHHHH,soluble
5,MVRAPIDGIVANRSAHTGSWVEGGTSLVSLVPVSELWVDANYKENQIAGMKPGMKAEIRADILKGEVFHGHIESLSPATGASFSLIPIENATGNFTKIVQRVPVRIAFDDAKELKQLLRPGLSVTVSVDER,not soluble
6,PDMKESMSDLYYEMISSAQKSIWIATPYFVPNESIRTALKAAATKGVEVRVMVPEKNDSFLTQYASRSYFPELLLEGIEVYSYQKGFMHQKVMIIDGDLASVGTANMDMRSFQLNFEVNVFFTDAEAIRTLEAHFEEDMQESEKLS,soluble
7,MILLPSIRLPETAMNTDSPINRVEQVQVDDLACWRIHTAHGEALIAQQGAQLLSYQPHEQPPLVWLSDEAGYRRGQSVRGGVPVCWPWFGPLERNPQEVRGQVEDGLKAPAHGLVRAVDWKIDDIAEEDGDLCVSFRLDAPDGLPGWPHPAALRMLFRFGERLTLRLTSENLGSKPLVLSQALHTYFAVSDSREIAIEGLEGARYIETLENWEERTQHGAVRVKGELDRIYLGLERDLLIKDPRWERSIHLHALDSRSAVVWNPWVDKSRRLSQFADDAWQQMLCIETGRVWDDLMVVAPGRSESFGVQIWSEPLKRP,soluble
8,MAHHHHHHMSLNLTDAADDRSYKEMEKYTVERVAGQGTFGTVQLARDKSTGSLVAIKKVIQDPRFKNRELQIMQHLARLRHPNIVMLKNYFYTVGGEGRRNDVYLNVVMEFVPETLHRTCRNYYRRMTNPPLILVKVFMFQLLRSIACLHIPVINICHRDIKPHNVLVDEQTGELKLCDFGSAKRLAADEPNVAYICSRYYRAPELIFGNQFYTTAVDIWSVGCIFAEMLLGEPIFCGENTSGQLREIVKILGKPTKEELHKLNGSSTEINANAKATPWENVFKQPLPAEVYDLCGKIFKYVPDQRITPLDALCHPFFNELREPTTKLPSGNPLPAHLYQFTPDEVEAMTEAQREYLLKK,not soluble
9,MKVIFNADDFGLTQGVNQGIVKAHLDGVVKSTTLMVGMPAEQHAVQLAKQLPDLKIGLHLRFTAGRPLTGERNLTDEHGVFTAYRDFWQRRDYQPEAIYHEAIAQVEHFLKLGLTLSHLDSHHHAHTHPQLAPIIYEVAKKYHVPLRDIGMAGEEAFGCRYHFTDFFYDQRLGIDPLMKHLLELKERFDLVEVMCHPAFVDPLLEKCSGYAKQREEELHILTSAQLIQLLVAHDIEITDYSALISAPLHSCV,not soluble
10,MSGFIPGSTTGSMLTAISDTHGTDNHRLTGRTLDAVREADHVLHAGDFMTEQVLDAIDAESDELTGVVGNNDRPAVRARLSDVATVSWEELTIVVVHGHEHTETALGMLARQENADIVVVGHSHKPVLTDFGGWTLVNPGSYADPRRYQPAHAELDVMAGDVRVRLRSPDGTPISTTIVERLEHHHHHH,not soluble
11,MKSRFSARQQNSDNTADENKSTTTAVLLTNLGSPDEPTTSAVRRYLREFLSDTRVVEIPRLIWLLILHGIILRIRPAKSAKLYQTVWQDDGAPLISITAAQKEKMATKIKSQYGDNVIVDFAMRYGNPSIASVLQKFQQQGVDKLVVLPLYPQYAGPTTASTFDAVSKELQKWRYIPSIHFLNTYHNNPFYIQALAETVKEHVASHGKPERLVLSYHGMPELFHKWGDPYYDFCQE,not soluble
12,SNAKNRLGTKALNFTYTLDSGVKGTLYQFPAEYTLLFINNPGCHACAEMIEGLKASPVINGFTAAKKLKVLSIYPDEELDEWKKHRNDFAKEWTNGYDKELVIKNKNLYDLRAIPTLYLLDKNKTVLLKDATLQKVEQYLAE,soluble
13,MEEWPALQWSQGTPASGPALQALEEYAFVPRDDESRQGIRTDALLVIRDGRLLYERYAGATGPQTPHLAWSASKSLLAVLLGVAFGEGRFQLQDPAAKFYPPLEAHPDITLADLLHWASGLDWQEDYEYAPLNSSVVAMLYTRGHRDMAAFTVQQAASGPPGQVFRYSSGDSNLLAASLRGMVGEGQYADYPWRALFEPLGITQAVWERDAAGTFVASSYLYLTARDLARIGLLMQRDGRWRDRQLLPKAWVEFCRTPFRGYRANQDVAVAGGHWWLNREVDGAPRPWPDAPADTYAALGHWGQALYVLPAQRLVIVRYGDDRDGSYQHNELLKRVLAAFATPEQPLEHHHHHH,not soluble
14,MGSDKIHHHHHHMGPLSGITILDLTSVLMGPYATQTLADMGADVVKVESPEGDIVRHIGPGRTPGMGGMFLNTNRGKRSIVIDLKQNDGREALLRLAARANALIYNVRPQAMARLGLSYEQVAAVNPGIVYLGAFGYGQDGPYAAKPAYDDLIQGAAGVPTLLAAAGDGTPRYVPITIADRIVGLMAVNAMLGALMHQQRTGEGQRIDVPMFESMASFVLVDHLGGLTYEPPLDHGGYARLLSRSRKPYRTSDGYLCVLIYNDKQWRSFFEAIDRTDFLAQPRFANHAARTRHIDEIYEEIGAIFLTRTTAEWRELLERADIPVMPMHSMESILDDPHLRAVGFFETVEHPVEGRVRQMKVPSTWSATQPQPGGPAPTLGGNGRDILTEAGFSSAEIERLGHSKAVHLPD,not soluble
15,MSLGSAIETLERLLKKRLRVPQEQLDTNPWLLNCANGTVDLRTGTLKAHRPEDYITRVVPLNFDPKATAPEFITTLARITCEEGQAGKPLCAFLQRWFGYCATGEVREQKFAVLYGDGNNGKSTLLDLITGILGRYSGVAAPGLLTGKNGPQHPNAIADLAGRRMVTTHESGEGEVLREDFVKQATGGDTLKARYLYGEFFEFKPTHKLQLLTNHKPAIKGQDSGIWRRIMLIPFKAKFDAAEGEEIGNGKYPRDMRIAEKLAAEREGVLAWIVAGAVEWYKNGLRPPDIVLAASEDYKEEQDRVGQFIDEECELGVEKEEKLSTPMGGGLYPAYTQWCKASGVCALSKVRFLGGLERRVPGFKKKVTKETVGAGKRREFVVIQGVALVDADEGHHHHHH,not soluble
16,MGSDKIHHHHHHMNAVPKDEMTPLERMAAFAAGKPYDRIPCSSFSGETACHFIGTTVSEYRHSAKLMARVETVTYKMFGHDGAGVGPGFLALAEAMGTELKYPEDNIPFVANPVLKNWDDFDKLEPADPHKDGKLPIYLEALAMIKDAIGDEVPIGSSVGGPFTTAALVRGTENFLKDLRRNPEMAHRLLQLVTNTTLNYIDAVMDMGCSVSIGDPTASGSLLSVKQFREFAKPYLSKLADRVIERTGKGPMLHICGDSTPIWSDMADTGAPTLSLDNVIDLAEAKKVVGERVCIMGNVKPIDTIMKGSHQQIEAEVKECLRKAYDSPKGFILAVGCQVPLGTTADNFMCFMNAARKYGRYPLNPDNFI,not soluble
17,MKRYTVKDIEALLPKLGADDPRWEMLRQDERKSVQALLARFERQKARRHAIEQRWEELMRYERELYAAGVRRIAGIDEAGRGPLAGPVVAAAVILPKDAYLPGLDDSKRLTPEKREALFAQIEACAVAIGIGIVSAAEIDERNIYEATRQAMAKAVNALSPPPEHLLVDAMAVPCPLPQQRLIKGDANSASIAAASVIAKVTRDRWMKELDRRYPQYGFARHMGYGTPEHFEAIRRYGVTPEHRRSFAPVREVLKASEQL,soluble
18,GMRKDDVVIVTCAITGAIHTPSMSPYLPVTPDQIVEEAVKAAEAGAGMVHIHARDPKDGRPTTDVEVFRYICREIKKQSDVVINVTTGGGGTLGIPVEERAKVVPALKPEIATFNMGSMNFAIHPLLKKYKEFKYDWEPEYLEMTRDIVFRNTFKDLEALSRIFKENDTKPELECYDIGQIYNTAFMFHEGYLEPPLRLQFIHGILGGIGTAVEDVLFMKQTADRLIGRENYTWSLVGAGRFQMPLGTLAVIMGGDVRVGLEDSLYIERGKLAKSNAEQVEKMVRIVKELGKRPATPDEVREILGLKGKERVNF,soluble
19,MSLDSLYVNDFYKGDRNITKFLKLELEMYDWKLMILHYLGLDHIGHVEGPFSDKVPGKLKEMDKVIKTIYHTMDKWKYYTKPLLVITGDHGMRDSGGHGGSSHAETIVPVVIVSDQCAKSEETFLQIDEGHHHHHH,not soluble
20,MVIRVFIASSSGFVAIKKKQQDVVRFLEANKIEFEEVDITMSEEQRQWMYKNVPPEKKPTQGNPLPPQIFNGDRYCGDYDSFFESKESNTVFSFLGLK,soluble
21,MQAGKPILYSYFRSSCSWRVRIALALKGIDYKTVPINLIKDGGQQFSKDFQALNPMKQVPTLKIDGITIHQSLAIIEYLEETRPTPRLLPQDPKKRASVRMISDLIAGGIQPLQNLSVLKQVGEEMQLTWAQNAITCGFNALEQILQSTAGIYCVGDEVTMADLCLVPQVANAERFKVDLTPYPTISSINKRLLVLEAFQVSHPCRQPDTPTELRA,soluble
22,MASTARSLRYALAILTTSLVTPSVWAHAHLTHQYPAANAQVTAAPQAITLNFSEGVETGFSGAKITGPKNENIKTLPAKRNEQDQKQLIVPLADSLKPGTYTVDWHVVSVDGHKTKGHYTFSVK,soluble
